Results: patent publication CN109776681A

Target: 人IgG蛋白 (human)
Assay: BLI (Octet RED96), human IgG loaded on the sensor, nanobody at 50 μg/mL in solution

Kd: 3.69 nM
koff: 0.00157 s⁻¹
kon: 426000 M⁻¹ s⁻¹
B1: 抗免疫球蛋白G的Fc段的纳米抗体 (编号为I4的阳性克隆) (VHH)
VHH: QVQLVESGGGLVQAGGSLRLSCAASGGTFYSYAMGWFRQAPGKKREFVAAIRWTSGITYYADSVKDRFTISRDNAKNTVYLQMTGLKPEDTAVYYCALGPDNSDSYDYWGQGTQVTVSS
